Experimental data: article PMC8519567
Like-named read-outs stand apart in the source and are kept apart here. Each block holds one substance with its values, some of them ahead of it.

Tests used:
[1] = tested on: SMARCAD1 (dephosphorylated with CIP) (Homo sapiens); assay: FP
[2] = target: refolded histones H3-H4 labeled with Alexa Fluor 488 on H4 (human) (UniProt P68431); assay: fluorescence polarisation
[3] = target: 7 N11 nucleosome labeled at H4 E63C with Alexa Fluor 488 (human) (UniProt P04908); assay: fluorescence polarisation
[4] = target: histones: H3-H4 (Alexa Fluor 488–H4) and H2A-H2B (Atto647N H2B) mixed at 10 nM (human); assay: FRET or BRET
[5] = target: histones: H3-H4 (Alexa Fluor 488–H4) and H2A-H2B (Atto647N H2B) mixed at 10 nM (human); assay: FRET or BRET; remark: listed apart in the source

Substance: 7N11 nucleosome (165 bp), Alexa Fluor 488 at H4 E63C
- Kd [1]: 90 nM

Substance: 147-bp 601 DNA
- Kd [1]: 80 nM

Substance: TLH3 nucleosome (tailless H3)
- Kd ([1]; H3 N-terminal tail deleted): 330 nM

Substance: TLH4 nucleosome (tailless H4)
- Kd ([1]; H4 N-terminal tail deleted): 110 nM

- Kd [2]: 4 nM
- Kd [3]: 90 nM
- Kd [4]: 2.1 nM
- Kd [5]: 1.3 nM
Substance: dephosphorylated SMARCAD1 (from UniProt Q9H4L7 1-1026) (enzyme)
